Assay results taken from US6096529A, “Recombinant α-2,3-sialyltransferases and their uses” (priority 1997, dated 2000).

Legend:
Test in all cases: Determination of kinetic constants with APTS-labelled acceptors
Format in all cases: biochemical, Neisseria meningitidis
[1] = test system: O=S(=O)(O)c1cc(NC[C@H](O)[C@@H](O)[C@H](O[C@@H]2O[C@H](CO)[C@H](O[C@H]3O[C@H](CO)[C@H](O)[C@H](O)[C@H]3O)[C@H](O)[C@H]2O)[C@H](O)CO)c2ccc3c(S(=O)(=O)O)cc(S(=O)(=O)O)c4ccc1c2c34; conditions: other: apparent; APTS-labelled acceptor, CMP-Neu5Ac 200 μM, room temperature
Description: (§1) Measurement of Sialyltransferase Activity and Survey of Oligosaccharide Acceptors--FCHASE-labelled oligosaccharides were prepared as described above, while the APTS-labelled oligosaccharides were prepared by reductive amination of reducing saccharides according to the method described by Guttman et at. (Anal. Biochem233:234 (1996)) The Gal-β-APTS acceptor was derived from labelling of lactose; the Gal-α-APTS acceptor was derived from labelling of melibiose; the N-acetyllactosamine (LacNAc) acceptor was synthesized by APTS labelling of chitobiose, followed by enzymatic modification with bovine β-Galactosyl transferase to produce the LacNAc moiety-, the Gal-α-1.4-Gal-β acceptor was enzymatically synthesized from β-Gal-APTS with the α-1,4-galactosyltransferase from N. meningitidis. All of the reductive amination products were purified by gel permeation chromatography on Toyopearl HW4OF (Sigma-Aldrich), 1.5 cm×15 cm column, using water as the eluant. It should be mentioned that all of these molecules have the terminal reducing sugar ring opened in the process of labelling. APTS-saccharides were quantitated by measuring the A455, and using an extinction coefficient of 17160 M^-1 cm^-1 . The TMR-labelled oligosaccharides were prepared as described by Zhao et al. (1994) Glycobiology 4:239-242. For the TMR labelled acceptors we used an extinction coefficient of 80,000 M^-1 cm^-1 for quantitation. The sialyltransferase activity was routinely measured using 0.5 mM FCHASE-N-acetyllactosamine as the acceptor and the assay conditions as described above. For measurement of Km, and kcat values, assays were performed with the APTS labelled saccharides at room temperature. Assays were monitored so that for all acceptor concentrations, no more than 10% conversion to product occurred. The ranges of acceptor and donor concentrations were determined empirically, then a range spanning 0.2Km, up to 5Km, was used to obtain the values. Data were examined using the Grafit™3.0 software package (Erithacus Software, London, UK).
(§2) The reaction mixtures from the FCHASE- and APTS-labelled acceptors were analyzed by capillary electrophoresis performed with a Beckman instruments (Fullerton, Calif.) P/ACE 5510 equipped with a 3 mW Argon-ion laser induced fluorescence detector, λ excitation=488 nm λ emission=520 nm. The Capillary was of bare silica 75 μ X 57 cm, with the detector at 50 cm. The capillary was conditioned before each run by washing with 0.2 M NaOH for 2 min., water for 2 min., and either 20 mM sodium phosphate buffer, pH 7.4 or sodium tetraborate, pH 9.3, 2 min. Samples were introduced by pressure injection for 2-5 seconds, and the separation was performed at 18 kV, 75 μA. Peak integration was performed with the Beckman PACE-Station software (version 1).

[2] = test system: CC(=O)N[C@H]1[C@H](O[C@@H]([C@H](O)[C@H](CNc2cc(S(=O)(=O)O)c3ccc4c(S(=O)(=O)O)cc(S(=O)(=O)O)c5ccc2c3c54)NC(C)=O)[C@H](O)CO)O[C@H](CO)[C@@H](O[C@@H]2O[C@H](CO)[C@H](O)[C@H](O)[C@H]2O)[C@@H]1O; conditions: other: apparent; APTS-labelled acceptor, CMP-Neu5Ac 200 μM, room temperature
Description: as §1, §2

[3] = test system: CC(=O)N[C@H]1[C@H]([C@H](O)[C@H](O)CO)O[C@](OP(=O)(O)OC[C@H]2O[C@@H](n3ccc(N)nc3=O)[C@H](O)[C@@H]2O)(C(=O)O)C[C@@H]1O; conditions: other: acceptor LacNAc-APTS (0.8 mM) or lacto-N-neotetraose-APTS (0.2 mM)
Description: as §1, §2

[4] = test system: CC(=O)N[C@H]1[C@H](O[C@H]2[C@@H](O)[C@@H](CO)O[C@@H](O[C@@H]([C@H](O)[C@@H](O)CNc3cc(S(=O)(=O)O)c4ccc5c(S(=O)(=O)O)cc(S(=O)(=O)O)c6ccc3c4c65)[C@H](O)CO)[C@@H]2O)O[C@H](CO)[C@@H](O[C@@H]2O[C@H](CO)[C@H](O)[C@H](O)[C@H]2O)[C@@H]1O; conditions: other: apparent; APTS-labelled acceptor, CMP-Neu5Ac 200 μM, room temperature
Description: as §1, §2

[5] = test system: O=S(=O)(O)c1cc(NC[C@H](O)[C@@H](O)[C@H](O[C@@H]2O[C@H](CO)[C@H](O)[C@H](O)[C@H]2O)[C@H](O)CO)c2ccc3c(S(=O)(=O)O)cc(S(=O)(=O)O)c4ccc1c2c34; conditions: other: apparent; APTS-labelled acceptor, CMP-Neu5Ac 200 μM, room temperature
Description: as §1, §2

[6] = test system: CC(=O)N[C@H]1[C@H](O[C@H]2[C@@H](O)[C@@H](CO)O[C@@H](O[C@@H]([C@H](O)[C@@H](O)CNc3cc(S(=O)(=O)O)c4ccc5c(S(=O)(=O)O)cc(S(=O)(=O)O)c6ccc3c4c65)[C@H](O)CO)[C@@H]2O)O[C@H](CO)[C@@H](O)[C@@H]1O[C@@H]1O[C@H](CO)[C@H](O)[C@H](O)[C@H]1O; conditions: other: apparent; APTS-labelled acceptor, CMP-Neu5Ac 200 μM, room temperature
Description: as §1, §2

purified recombinant α-2,3-sialyltransferase (Neisseria meningitidis MC58)
Km [1]: 139 µM
kcat [1]: 0.013 s⁻¹
Km [2]: 67 µM
kcat [2]: 0.118 s⁻¹
Km [3]: 20 µM
Km [4]: 42 µM
Km [5]: 168 µM
kcat [5]: 0.0633 s⁻¹
Km [6]: 113 µM
kcat [6]: 0.0383 s⁻¹
